The record followed here is publication PMC4490372, “Architecture of TFIIIC and its role in RNA polymerase III pre-initiation complex assembly” (Nature Communications, 2015).

In assay [1] the target is T1, Bdp1, full-length, recombinant (UniProt P46678 1-594).
T1 construct: Bdp1, subunit of TFIIIB, full-length; also called untagged Bdp1; source: E. coli BL21 Star (DE3) pRARE, purified (Ni-NTA, TEV cleavage, S200 SEC); not shown: His6, N-terminal, cleaved
T1 sequence (looked up): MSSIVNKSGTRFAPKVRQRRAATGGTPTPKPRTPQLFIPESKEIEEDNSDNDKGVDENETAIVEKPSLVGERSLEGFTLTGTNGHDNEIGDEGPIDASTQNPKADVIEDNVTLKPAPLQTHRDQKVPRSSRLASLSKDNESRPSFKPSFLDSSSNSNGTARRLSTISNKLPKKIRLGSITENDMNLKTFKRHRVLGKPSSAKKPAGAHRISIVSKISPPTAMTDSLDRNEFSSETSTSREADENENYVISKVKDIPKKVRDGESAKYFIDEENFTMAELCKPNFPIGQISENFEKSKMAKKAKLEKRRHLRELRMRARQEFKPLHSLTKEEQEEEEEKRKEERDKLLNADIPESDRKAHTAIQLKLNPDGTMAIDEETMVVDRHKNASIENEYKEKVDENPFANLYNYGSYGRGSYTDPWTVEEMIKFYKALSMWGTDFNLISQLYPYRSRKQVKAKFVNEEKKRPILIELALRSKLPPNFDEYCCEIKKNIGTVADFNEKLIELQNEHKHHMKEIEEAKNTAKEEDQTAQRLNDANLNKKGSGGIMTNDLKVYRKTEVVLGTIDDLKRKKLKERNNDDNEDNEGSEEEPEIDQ
The assay is described as follows: pull-down; 15 μg GST-tagged τ131 on Glutathione Sepharose 4B; 300 nM τ138 or Bdp1, or 1 μM Brf1–TBP; 50 mM Tris pH 7.5, 150 mM NaCl, 2 mM DTT, 0.1% Tween20; 4 °C, 4 h. The conditions noted are these: both partners purified.

In assay [2] the target is T2, τ91 (Tfc6), τB subunit of endogenous S. cerevisiae TFIIIC (S. cerevisiae, UniProt Q06339 1-672).
T2 construct: τ91 (Tfc6), subunit of S. cerevisiae TFIIIC, endogenous subunit in the purified complex; source: endogenous, purified from S. cerevisiae strain SC2342 as part of TFIIIC (TAP tag on τ60)
T2 sequence (looked up): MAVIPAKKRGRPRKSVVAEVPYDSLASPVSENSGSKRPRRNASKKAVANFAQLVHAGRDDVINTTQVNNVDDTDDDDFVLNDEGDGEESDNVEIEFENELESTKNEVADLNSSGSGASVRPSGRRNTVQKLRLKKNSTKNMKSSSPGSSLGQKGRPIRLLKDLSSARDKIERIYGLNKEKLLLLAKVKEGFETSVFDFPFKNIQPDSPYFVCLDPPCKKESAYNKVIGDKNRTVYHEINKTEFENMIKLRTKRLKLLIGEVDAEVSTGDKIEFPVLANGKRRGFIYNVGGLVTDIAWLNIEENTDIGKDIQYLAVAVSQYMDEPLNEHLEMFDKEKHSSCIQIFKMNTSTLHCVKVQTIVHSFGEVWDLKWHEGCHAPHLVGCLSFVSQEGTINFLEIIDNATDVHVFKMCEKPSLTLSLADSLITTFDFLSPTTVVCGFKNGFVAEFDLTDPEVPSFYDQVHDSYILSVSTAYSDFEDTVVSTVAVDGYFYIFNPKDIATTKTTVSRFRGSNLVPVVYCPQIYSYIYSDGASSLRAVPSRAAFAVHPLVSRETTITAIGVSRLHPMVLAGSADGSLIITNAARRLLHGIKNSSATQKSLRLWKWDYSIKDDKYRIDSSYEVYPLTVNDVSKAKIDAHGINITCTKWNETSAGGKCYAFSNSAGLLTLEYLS
Nature of the assay: SEC; endogenous TFIIIC purified from yeast by the TAP tag on τ60 (heparin, IgG Sepharose, TEV, MonoQ), then Superose 6 10/300 in 25 mM HEPES pH 7.5, 150 mM NaCl, 1 mM DTT; SDS-PAGE of an elution peak fraction. The following applies: partners not purified.

B1: GST-tagged τ131 (1–580), wild type (domain or fragment, S. cerevisiae, UniProt P33339 1-580, looked up)
chain: MAAGKLKKEQQNQSAERESADTGKVNDEDEEHLYGNIDDYKHLIQDEEYDDEDVPHDLQLSEDEYNSERDSSLLAEFSDYGEISEDDEEDFMNAIREASNFKVKKKKKNDKGKSYGRQRKERVLDPEVAQLLSQANEAFVRNDLQVAERLFNEVIKKDARNFAAYETLGDIYQLQGRLNDCCNSWFLAAHLNASDWEFWKIVAILSADLDHVRQAIYCFSRVISLNPMEWESIYRRSMLYKKTGQLARALDGFQRLYMYNPYDANILRELAILYVDYDRIEDSIELYMKVFNANVERREAILAALENALDSSDEESAAEGEDADEKEPLEQDEDRQMFPDINWKKIDAKYKCIPFDWSSLNILAELFLKLAVSEVDGIKTIKKCARWIQRRESQTFWDHVPDDSEFDNRRFKNSTFDSLLAAEKEKSYNIPIDIRVRLGLLRLNTDNLVEALNHFQCLYDETFSDVADLYFEAATALTRAEKYKEAIDFFTPLLSLEEWRTTDVFKPLARCYKEIESYETAKEFYELAIKSEPDDLDIRVSLAEVYYRLNDPETFKHMLVDVVEMRKHQVDETLHRISNE
notes: τ131 (Tfc4) of S. cerevisiae TFIIIC, residues 1-580 (extended N terminus and TPR array); also called GST-τ131 (1–580); longer τ131 protein; source: E. coli BL21 (DE3) Gold, purified (GST column, S200 SEC)
As to B1, in assay [1], the binding result is listed as “binds”.

B2: GST-tagged τ131 (123–566), wild type (domain or fragment, S. cerevisiae, UniProt P33339 123-566, looked up)
chain: VLDPEVAQLLSQANEAFVRNDLQVAERLFNEVIKKDARNFAAYETLGDIYQLQGRLNDCCNSWFLAAHLNASDWEFWKIVAILSADLDHVRQAIYCFSRVISLNPMEWESIYRRSMLYKKTGQLARALDGFQRLYMYNPYDANILRELAILYVDYDRIEDSIELYMKVFNANVERREAILAALENALDSSDEESAAEGEDADEKEPLEQDEDRQMFPDINWKKIDAKYKCIPFDWSSLNILAELFLKLAVSEVDGIKTIKKCARWIQRRESQTFWDHVPDDSEFDNRRFKNSTFDSLLAAEKEKSYNIPIDIRVRLGLLRLNTDNLVEALNHFQCLYDETFSDVADLYFEAATALTRAEKYKEAIDFFTPLLSLEEWRTTDVFKPLARCYKEIESYETAKEFYELAIKSEPDDLDIRVSLAEVYYRLNDPETFKHMLVDVVEMR
notes: also called GST-τ131; source: E. coli BL21 (DE3) Gold, purified (GST column, S200 SEC)
For B2, the binding result in assay [1] was “binds”.

B3: τ60 (Tfc8), τB subunit of endogenous S. cerevisiae TFIIIC, fused with a C-terminal TAP-tag (natural protein, UniProt Q12308 1-588, looked up)
chain: MKLLKDLLVDRKEFEDWKNNLTWARDGTLYLTTFPDISIGQPKYAKDINCNSKNLFHVKEFPLEFENKLDFELAQQNGLLNSQPVCYPRVCKPSPIDDWMAVLSNNGNVSVFKDNKMLTNLDSKGNLSSRTYHCFEWNPIESSIVVGNEDGELQFFSIRKNSENTPEFYFESSIRLSDAGSKDWVTHIVWYEDVLVAALSNNSVFSMTVSASSHQPVSRMIQNASRRKITDLKIVDYKVVLTCPGYVHKIDLKNYSISSLKTGSLENFHIIPLNHEKESTILLMSNKTSYKVLLEDELHVTADNIIAPYLEKKFKKWSTIWNEFNNYETTLVIHGISLSPDGYSIAIVYDMERVAFKYKIASEQSFNIMFAPLYHTWTISERAVGLAWYQTYQIYNQSLPKLPENFSMNKKLLNGNYPISLDFQSYLNALMKSEEMRIIMFLNMTIDKPSILSFLEALYEYAINKKSELTNSFDLACVLSIAAILKREAPIYNGTLLMKNSFLEETFNLESFTADPETVTSTTNNTWKRCGVTLLPILTTHVKICPVSKQRVIDIKRDDLNDYGWFTRGLLERFNEISVYCGTTLEVM
notes: τ60 (Tfc8), subunit of S. cerevisiae TFIIIC, endogenous TFC8 fused with a C-terminal TAP-tag; The complex was captured on IgG Sepharose by the TAP tag and released by TEV protease before MonoQ, Superose 6 and cross-linking; not shown: TAP, C-terminal, kept
On to B3, for which, in assay [2], the binding result is given as “binds”.
